Source: paper PMC3328432, “Molecular Requirements for Peroxisomal Targeting of Alanine-Glyoxylate Aminotransferase as an Essential Determinant in Primary Hyperoxaluria Type 1” (PLoS Biology, 2012)

Biological target: AGT of all performed ITC measurements (wild type and AGT mutants of Table S1)
Test: ITC; 25–46 µM AGT as sample in the cell, 250–460 µM Pex5p(C) as titration ligand, 27 injections of 10 µl; 25°C; 100 mM HEPES pH 7.5, 150 mM NaCl, 2 mM ß-mercaptoethanol

“C-terminal cargo-binding segment of human Pex5p (residues 315-639) (from UniProt P50542 315-639) (domain or fragment)” showed a stoichiometry N of 1.02.
